Experimental data: publication PMC8794075 (Emerging Microbes & Infections, 2022)

Columns and labels:
SARS-CoV-2 NTD protein = SARS-CoV-2 NTD protein (SARS-CoV-2 Wuhan-Hu-1, UniProt P0DTC2); test: ELISA; conditions: both partners purified
[1] = target: SARS-CoV-2 RBD protein (wild type) (SARS-CoV-2, UniProt P0DTC2); test: ELISA; conditions: both partners purified

B1: MAb S3H3 (antibody, V domains shown)
VH: QVQLQQPGAELVRPGASVKLSCKASGYSFTRFWMNWVKQRPGQGLEWIGMIHPSDSETRLNQKFKDKATLTVDKSSTTAYMQLSSPTSEDSAVYYCARKDYDYDAWFAYWGQGTLVTVSA
VL: DIVLTQSPASLAVSLGQRATISCRASKSVSASVYSYMHWYQQKPGQPPKLLIYLASSLESGVPARFSGSGSGTDFTLNIHPVEEEDAATYYCHHSRELPPAFGGGTKLEIK
B1: no binding (tested: 100 ng/well) (SARS-CoV-2 NTD protein); no binding (tested: 100 ng/well) [1].
